Data reported in article PMC2693456.

Tests used:
annexin II = annexin II (UniProt Q07936); experiment: biotin-peptide streptavidin pull-down, LC-MS/MS; details: reference: nonphospho-peptide
[1] = target: Heat Shock Protein 70 Isoform 1 (hsp70-1); experiment: biotin-peptide streptavidin pull-down, LC-MS/MS; details: reference: nonphospho-peptide; sites S261
[2] = target: heat shock cognate 70 (hsc70; hsp70 isoform 8) (UniProt P63018); experiment: biotin-peptide streptavidin pull-down, LC-MS/MS; details: reference: nonphospho-peptide
[3] = target: Heat Shock Protein 70 Isoform 2 (hsp70-2) (UniProt P14659); experiment: biotin-peptide streptavidin pull-down, LC-MS/MS; details: reference: nonphospho-peptide
[4] = target: BiP (Grp78, hsp70 isoform 5) (UniProt P06761); experiment: biotin-peptide streptavidin pull-down, LC-MS/MS; details: reference: nonphospho-peptide
[5] = target: BiP (Grp78, hsp70 isoform 5) (UniProt P06761); experiment: biotin-peptide streptavidin pull-down, immunoblot; details: reference: nonphospho-peptide; sites S256

Substance | other: label-free MS quantification vs no-peptide control (Table 2) (annexin II; sites S261) | other: label-free MS quantification vs no-peptide control (Table 2) [1] | other: label-free MS quantification vs no-peptide control (Table 2) ([2]; sites S261) | other: label-free MS quantification vs no-peptide control (Table 2) ([3]; sites S261) | other: label-free MS quantification vs no-peptide control (Table 2) ([4]; sites S261) | binding against the reference [5] | other: label-free MS quantification vs no-peptide control (Table 2) (annexin II; sites S256) | other: label-free MS quantification vs no-peptide control (Table 2) ([2]; sites S256) | other: label-free MS quantification vs no-peptide control (Table 2) ([3]; sites S256) | other: label-free MS quantification vs no-peptide control (Table 2) ([4]; sites S256)
aquaporin-2 (AQP2) COOH-terminal peptide COOH-terminal tail (from UniProt P34080) pS261 peptide | weaker; reference 3.19 ± 0.32 | weaker; reference 3.41 ± 0.44 | weaker; reference 5.70 ± 0.27 | weaker; reference 4.17 ± 0.38 | weaker; reference 2.13 ± 0.57 |  |  |  |  | 
aquaporin-2 (AQP2) COOH-terminal peptide COOH-terminal tail (from UniProt P34080) pS256 peptide |  |  |  |  |  | stronger | weaker; reference 3.19 ± 0.32 | weaker; reference 5.70 ± 0.27 | weaker; reference 4.17 ± 0.38 | stronger; reference 2.13 ± 0.57
